Measured values taken from the DeepSol protein solubility set.

test: soluble on expression in E. coli; label from the status in PepcDB or PDB records

Sequence	soluble on expression in E. coli
MNILVTGAKGFVGRNLCAQLNNIKNGKARCYGDLKIEEVFEYDIDSTSEQLDAWCQKADFVFNLAGVNRPKENVEFMKGNFGFASTLLDTLKKHHNTCPVMLSSSAQASLTGRFGNSEYGRSKKAGEDLFLQYGKDTGAKVLVYRFPNLYGKWCRPNYNSAVATFCNNIANDLPIQVSDSSVVLELLYIDDLVDEMIHALKGEEHHCEFEGLDVHPLVDGRYCYCPVTHKVTLGEIVDLLHQFAEMPKTLMIPEIPSDSFAKRLYSTYLSYLPKEKAIFDLKMNVDQRGSFTELVHTLNCGQVSINISKPGITKGEHWHNTKWEQFIVVSGHGLIQLRKEGTDEVLNYEVSGDKIQSVIMLPGYAHNIINLSDTEDLVTVMYCNEIFNPDKPDTYFDKVKK	not soluble
MGSDKIHHHHHHMKVCILGATGRVGSNIIKLALKDSVEVTALARDSSRVEINHERLRVIEGNVLNENDIKKAIEGSDIVISALGTDQNGTLAKSMPQIIKKMEEEGVRKIITIGTAGILQARTNLNLYRFQSTESKRKSTTAAEEHLAAYKILSSSNLCWTVVCPTHLIDGDVTGIYRTEKDVLPEGGAKITVGDTAQFTWNLCSKNKYENSRVGISY	not soluble
MAGHVHKVAVRQLKLLRYRNYFSFNIRFSGQHVVFTGHNGSGKTNLLEALSFLSPGRGLRRAAYSDVSFANGGGEGFVVFARLECALYGEVNIGTALEMSDNSRKVHINGVNETGDCLTDYCHMSILTPSMDGLFTGSSLERRRFLDRMVLAIDPLHSRRIADYDRVMRARNRLFLDGNEDCAWFDALEKQMAELATAISAARIDVIRLLNDMLARTPSQLPFPRAFLQIDGFLEAALSKISAVEVEEQFCDRLQHNRAIDRAAGRTLEGPHRTDLQVFYADKNMAAASCSTGEQKALLTGLVLCHARLTGLMSERTPILLLDEIVAHLDSHRRAALFDILDDLGGQTFMTGTDPILFNALKGRAEFFAIKDGTLLQ	not soluble
MGSDKIHHHHHHMRAHCRHSLWRKENMMESKIYPHEVSLETIDSMPDEYRDTLIHQLLANGEGELSAGDTYIDSFYPLAPDADERYICAQFAAEEVDHFRRFSRLLAELEVDTSHMLSQKKAERRYFAAESMTTDFRSWEERAAFSFLCELEGHYQIKEMVSSSYLPLRAEAEAVLKEEARHFSHGALLMRRAAKDGDARARAQDALDRLYPMAMDMFGRSDSHRSDAAVSWGLRQYTNGQLRDRYRDDVRGHIQRLGYEVPDETARRKYF	not soluble
MGSDKIHHHHHHMIYNDRLGEVMDLNTLIKIIEKVGRIEIEDIKITADELIINIPSAPPIVIPQTPSIKEKLAEEGIIEIKDVPELDWEPPVEKYPGYIREVQFGKPKSEGGRGKVVKIGGQRALYRFEEPQPNPPVVTFDIFDIPMPGLPKPIRQFFQDVMEDPCEWAKKCVKEFGADMITIHHISTDPKIKDKSPKEAAKLMEDLLQAVDVPFVIGGSGNPQKDPLVLEACAEVAEGDRCLLASANLELDYKKIVDAAMKYDHNVLAWSIMDPNMARDLNRKLVEAGLDPNRIVMDPTTCALGYGIEFSINAMVRLRLNGLKGDELVNMPMSSGTTNAIGAREAWMNNPEWGPREYRLPLWEITTGITMMMCGVDLFMMLNPISVKTLKEIGKTLTTKPGEVKLNTNNYEWIVSP	not soluble
MIARYQTPEMARLWSEESRYRMWARVEAYALEAWEALGEVPKGLSARLLAKLEEKPLDGAFARRVAELEAVTRHDLVAFTRALAEWTGDEEVGRYLHLGLTSSDIVDTAQNALLVEALGLVLEELKGVEEALKALALRHKHTPAIARTHGVHAEPTSFGLRFLFFLAAFQRDEERLKRARETIGVAMLSGSVGNYAHVPPEVEAHVASRLGLRPEPLSTQVVPRDRHAEVMAALAILGGNIERVAVELRHLQRTEVLEAQEPFHEGQTGSSSMPHKKNPVGLENLTGVARLLRGYLFPALEDIALWHERDISHSSVERVILPDATTLAHYALRRLKGILEGLEVFEENLARNLDLTRGLVYSQQVLNALIARGLSRNKAYALVQRNALRSWKEGKSFLELLEADPENPLKGKELRALFDPKPFLRHVDAIYARFGL	soluble
MSNYAKEERLTGGNVSSVYRSENTVRRELKPGSEKTHKLLQHLENKGFHYAPKFLGVDEKDREILSFIEGEAGNYPLKEYMRSNDVLKEIAKMLRLYHDAVSDFPLLNDWKPMDHTPNNIEVLCHNDFAIYNIIFNNEKPVGIIDFDVAAPGPRLWDIAYTLYTCVPLSRVYYTESGEAVHYDSPQHADRIKERVKLFVQSYGKNMDEDYLGMVLLRLEGLCTYMKRKAQEGDLNFQRMIDEGHLEHYEKDIKFIRDHRAEWS	not soluble
MIRELVTTAAITGAAIGGAPVAGADPQRYDGDVPGMNYDASLGAPCSSWERFIFGRGPSGQAEACHFPPPNQFPPAETGYWVISYPLYGVQQVGAPCPKPQAAAQSPDGLPMLCLGARGWQPGWFTGAGFFPPEP	soluble
MAVPPTYVDLGKSARDIFTKGYGFGLIKLDLKTRSENGLEFKSSGSANTETSKVAGTLETKYKWAEHGLTFTEKWNTDNTLGTEITLEDQLTKGLKLTFDSSFSPNTGKKSGKIKSSYQREHINLGCDVDYDINGTAVHGALVLGLDGWLAGYQMTFEAGRNRITQSNFAVGYKTDEFQLHTNVNDGTEFGGSIYQKVNDNLETAVNLAWTAGNSNTRFGIAAKYQIDSDAAFSAKVNNSSLVGLGYTQTLKPGIKLTLSALLDGKNINAGGHKMGLGLEFEA	soluble
MGSDKIHHHHHHMSSDSRDLARSATAWPFQEARALLDERLKGKAPDKGYVLFETGYGPSGLPHIGTFGEVARTTMVRRAFSLLAPEIPTRLFAFSDDMDGLRKVPDNIPNKEMVAKHLGKPLTRIPDPFGTHESFGHHNNARLCSFLDTFGFEYEFQSATDWYKSGRFDAALLGVLKHYDEVINVVLPTLGDERRATYSPFLPVCPDTGIVLQVPVVERNVEAGTIVYKREDGKLIETPVTGGACKLQWKADWGMRWVALGVDYEMSGKDLIPSVQLSTRIATILGGRAPLNLTYELFLDDQGQKISKSKGNGLAVEDWLKYAPQESLALFMYQKPKTAKRLYFDVIPRAVDEYLAYLGKFPSEEPGKKLDNPVWHIHGGKPPAEDAHLSFNILMNLVSVCHSDDPAVIWGFIKRYAPGAAPETAPILNGLVGYAIAYFKDFVKPNMKYRKATPDEVEAFTALKDGLLALPADASVDDIQNLVYAIGKRPCFGELKAWFKACYEVLLGNDQGPRMGSFIKLFGIAETIALLDKAIAGEDM	not soluble
MGSDKIHHHHHHMQMAVRWQLSGSYFENCSCDVVCPCLLSTKAQLTSRPTKGVCDVGLVFHIDTGNYGDVRLDGLSVALVAHTPGPMADGNWTAAAYIDERADDRQTEALGAIFTGAAGGPMAVLAPMIGTNLGAKKVPIDYRIDGKKRSAAIAGVMQMAVEPLPTMREDGQMWAATGHPVNPDWLGMAMGAQGSTFSDHGMSWDNSGQNGHYAPINWSGE	not soluble
MGSDKIHHHHHHMSDIELLETLAGTDQPRVMATIIHVEGSSYRKEGAMMLFQEDGTQVGLLSGGCLETDLTIKAQKVWQEQLPRTVVYDLSSEDDLSWGQGSGCNGTISVLLEPVDLKLRQHLKRVYDYLCAGKSVFHVKKLSTSGAVLEYAFILDESVYFGEWHSGHPVEWIRKIDENEEPLMFTHIYSPKERLIIFGAGPDVPPLVTFASNVGFYTVVTDWRPNQCEKHFFPDADEIIVDFPADFLRKFLIRPDDFVLIMTHHFQKDQEILHFLLEKELRYIGILGSKERTRRLLQNRKPPDHLYSPVGLSIDAQGPEEIAISIVAQLIQLIRSRKQASSPFSYLFQPESCKH	not soluble
MRTELLSKLYDDFGIDQLPHTQHGVTSDRLGKLYEKYILDIFKDIESLKKYNTNAFPQEKDISSKLLKALNLDLDNIIDVSSSDTDLGRTIAGGSPKTDATIRFTFHNQSSRLVPLNIKHSSKKKVSIAEYDVETICTGVGISDGELKELIRKHQNDQSAKLFTPVQKQRLTELLEPYRERFIRWCVTLRAEKSEGNILHPDLLIRFQVIDREYVDVTIKNIDDYVSDRIAEGSKARKPGFGTGLNWTYASGSKAKKMQFKG	soluble
MGHHHHHHSHMDDAAVLKRRGYLLGINLGEGSYAKVKSAYSERLKFNVAIKIIDRKKAPADFLEKFLPREIEILAMLNHCSIIKTYEIFETSHGKVYIVMELAVQGDLLELIKTRGALHEDEARKKFHQLSLAIKYCHDLDVVHRDLKCDNLLLDKDFNIKLSDFSFSKRCLRDDSGRMALSKTFCGSPAYAAPEVLQGIPYQPKVYDIWSLGVILYIMVCGSMPYDDSNIKKMLRIQKEHRVNFPRSKHLTGECKDLIYHMLQPDVNRRLHIDEILSHCWMQPKARGSPSVA	not soluble
MIEVAEIIAREIRRGKIVEIGVGFYLEVAKRLRESGIDILVVDINEKAINYARKQGIKGVVDDIFNPTLGIYKDAKAIYSIRPAPEMMKPLLDLARKLKIPLYIVPLTGDRTPNGMKLINYKGIPIYKWEP	soluble
GPGSMRAEKVTVSPAGEGAAPLFVFGYGSILWKQQFEYLRALPCCVHGYKRVFYQGSTDHRGVPARPGRVVTLLTCGDPEAWVGGVAFELPVEEEKREKILAQLDDRESGGYEREEVTLYDIKTHERLHLPPGAVCLCYRATEDNPEYLGEAKDEAIAEQILSCEGLSGPNSEYLFKLAEALRKLESADQHVFAVETAALHIMKAQNVPE	soluble
MGSDKIHHHHHHMATAIRGLKLQTEDYFLTDKNAVMVAERHPQPVFPLHHHDFDELVIVWRGNGLHLWNDVPYRITRGDMFYVSAHDRHSYESVHELELDNILYIRNRLTLSADWQTLLPSGELPQSQRHWCLGSEGMDTIREKVDALTQECMKSDALSLQLSEALLLQIALLAARYRHSPDSPQLADAHQLDMLMNALRASIAAPFRFEAFCEQHHFSARSLRSRFKEQTGMSVPHYLRQLRLCKAMELLRYDLQTIGDVAALCGFEDSNYFSVVFHQAFGVSPSAYRQRFLNVE	not soluble
METRRIRKVLVANRGEIAIRVFRACTELGIRTVAIYSKEDVGSYHRYKADEAYLVGEGKKPIEAYLDIEGIIEIAKAHDVDAIHPGYGFLSENIQFAKRCREEGIIFIGPNENHLDMFGDKVKARHAAVNAGIPVIPGSDGPVDGLEDVVAFAEAHGYPIIIKAALGGGGRGMRIVRSKSEVKEAFERAKSEAKAAFGSDEVYVEKLIENPKHIEVQILGDYEGNIVHLYERDCSVQRRHQKVVEVAPSVSLSDELRQRICEAAVQLMRSVGYVNAGTVEFLVSGDEFYFIEVNPRIQVEHTITEMITGIDIVQSQILIADGCSLHSHEVGIPKQEDIRINGYAIQSRVTTEDPLNNFMPDTGKIMAYRSGGGFGVRLDAGNGFQGAVITPYYDSLLVKLSTWALTFEQAARKMLRNLREFRIRGIKTNIPFLENVVQHPKFLSGEYDTSFIDTTPELFVF	soluble
